Source: patent US20240116985A1 (published 2024)
Starred links: 1 amine or outer side, 2 acyl side, 3 side chain; linkers in the order of their positions; H or OH if unused. Positions of bridges follow the written chain, without caps; N, C: chain ends. Non-standard residues stand in square brackets, D forms with d. Primed or numbered codes have the meaning given here. PyrS2(3) = (S)-3-amino-1-((pent-4-en-1-yloxy)carbonyl)pyrrolidine-3-carboxylic acid, stapling residue, C=CCCCOC(=O)N1CC[C@@](N[*:1])(C(=O)[*:2])C1; PyrS2″ = (S)-3-amino-1-((pent-4-en-1-yloxy)carbonyl)pyrrolidine-3-carboxylic acid (stapling residue), C=CCCCOC(=O)N1CC[C@@](N[*:1])(C(=O)[*:2])C1; B5(16) = 2-amino-2-(pent-4-en-1-yl)hept-6-enoic acid = 2,2-bis(4-pentenyl)glycine (stitching residue), C=CCCCC(CCCC=C)(N[*:1])C(=O)[*:2]; B5(4) = 2,2-bis(4-pentenyl)glycine = 2-amino-2-(pent-4-en-1-yl)hept-6-enoic acid (stitching residue), C=CCCCC(CCCC=C)(N[*:1])C(=O)[*:2]; B5(20) = 2-amino-2-(pent-4-en-1-yl)hept-6-enoic acid = bis(4-pentenyl)glycine, stitching residue, C=CCCCC(CCCC=C)(N[*:1])C(=O)[*:2]; PyrS2 = (S)-3-amino-1-((pent-4-en-1-yloxy)carbonyl)pyrrolidine-3-carboxylic acid, C=CCCCOC(=O)N1CC[C@@](N[*:1])(C(=O)[*:2])C1; RdN = (R)-4-(((allyloxy)carbonyl)(methyl)amino)-2-amino-2-methylbutanoic acid, C=CCOC(=O)N(C)CC[C@@](C)(N[*:1])C(=O)[*:2]; S7 = C[C@@](CCCCCC=[*:3])(N[*:1])C(=O)[*:2]; Phe(2-Cl) = N[C@@H](Cc1ccccc1Cl)C(=O)O; Bta = N[C@@H](Cc1csc2ccccc12)C(=O)O; αAllylPro = C=CC[C@@]1(C(=O)O)CCCN1; tBuAla = CC(C)(C)C[C@H](N)C(=O)O; 3Thi = N[C@@H](Cc1ccsc1)C(=O)O; Cha = N[C@@H](CC1CCCCC1)C(=O)O; S8 = C=CCCCCCC[C@](C)(N)C(=O)O; Thr(ol) = C[C@@H](O)[C@H](N)CO; R5 = C=CCCC[C@@](C)(N)C(=O)O

T1: B-cat-Halo (UniProt P35222 1-781)
T1 sequence (looked up): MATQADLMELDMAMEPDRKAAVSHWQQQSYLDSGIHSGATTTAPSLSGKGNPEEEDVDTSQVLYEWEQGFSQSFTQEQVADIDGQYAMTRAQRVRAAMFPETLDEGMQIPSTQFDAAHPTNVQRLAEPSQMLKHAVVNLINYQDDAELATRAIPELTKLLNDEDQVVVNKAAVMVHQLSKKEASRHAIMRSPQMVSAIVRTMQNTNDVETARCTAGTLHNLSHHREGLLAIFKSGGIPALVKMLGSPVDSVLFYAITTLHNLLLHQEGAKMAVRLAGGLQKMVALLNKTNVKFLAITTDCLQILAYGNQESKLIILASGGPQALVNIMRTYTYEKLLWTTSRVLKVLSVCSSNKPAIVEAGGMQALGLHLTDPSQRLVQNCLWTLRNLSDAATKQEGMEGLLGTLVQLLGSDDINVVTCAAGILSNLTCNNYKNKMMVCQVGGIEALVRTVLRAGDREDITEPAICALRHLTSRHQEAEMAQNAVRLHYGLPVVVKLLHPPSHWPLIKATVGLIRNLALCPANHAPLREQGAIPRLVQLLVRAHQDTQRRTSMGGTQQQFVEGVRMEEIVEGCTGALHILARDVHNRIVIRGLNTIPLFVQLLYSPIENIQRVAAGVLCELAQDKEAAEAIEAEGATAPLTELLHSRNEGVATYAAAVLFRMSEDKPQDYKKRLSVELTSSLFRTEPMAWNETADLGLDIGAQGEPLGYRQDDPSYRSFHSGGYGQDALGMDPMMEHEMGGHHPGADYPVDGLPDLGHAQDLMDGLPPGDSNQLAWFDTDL

T2: full-length beta-Catenin (Uniprot ID P35222) (Homo sapiens (Human), UniProt P35222 2-781)
T2 construct: Used full-length in both the FP and the AlphaScreen assay; also called B-Catenin; bCat
T2 sequence: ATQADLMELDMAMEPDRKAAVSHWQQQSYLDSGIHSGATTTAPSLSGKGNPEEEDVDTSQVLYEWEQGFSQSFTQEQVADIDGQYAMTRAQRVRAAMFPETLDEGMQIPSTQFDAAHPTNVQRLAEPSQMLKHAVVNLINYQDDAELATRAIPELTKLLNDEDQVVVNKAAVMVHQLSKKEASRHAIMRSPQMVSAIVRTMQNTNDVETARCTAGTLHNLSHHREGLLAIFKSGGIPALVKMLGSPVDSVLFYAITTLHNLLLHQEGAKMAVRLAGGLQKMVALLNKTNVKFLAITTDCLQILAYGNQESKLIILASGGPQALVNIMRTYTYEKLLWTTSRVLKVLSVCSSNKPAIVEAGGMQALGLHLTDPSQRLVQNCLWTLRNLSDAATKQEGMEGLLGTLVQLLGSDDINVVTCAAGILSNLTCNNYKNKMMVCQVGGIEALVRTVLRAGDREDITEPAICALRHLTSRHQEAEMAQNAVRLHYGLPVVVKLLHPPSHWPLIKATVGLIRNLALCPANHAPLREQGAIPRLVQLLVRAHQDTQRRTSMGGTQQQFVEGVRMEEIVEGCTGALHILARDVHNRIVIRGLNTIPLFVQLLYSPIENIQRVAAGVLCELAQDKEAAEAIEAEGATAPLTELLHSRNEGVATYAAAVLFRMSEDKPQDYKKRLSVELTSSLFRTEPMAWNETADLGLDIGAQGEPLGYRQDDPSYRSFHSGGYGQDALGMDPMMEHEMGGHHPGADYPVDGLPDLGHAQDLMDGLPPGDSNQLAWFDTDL

T3: full-length beta-Catenin (Uniprot ID P35222) (Homo sapiens (Human), UniProt P35222 1-781)
T3 construct: also called bCat
T3 sequence: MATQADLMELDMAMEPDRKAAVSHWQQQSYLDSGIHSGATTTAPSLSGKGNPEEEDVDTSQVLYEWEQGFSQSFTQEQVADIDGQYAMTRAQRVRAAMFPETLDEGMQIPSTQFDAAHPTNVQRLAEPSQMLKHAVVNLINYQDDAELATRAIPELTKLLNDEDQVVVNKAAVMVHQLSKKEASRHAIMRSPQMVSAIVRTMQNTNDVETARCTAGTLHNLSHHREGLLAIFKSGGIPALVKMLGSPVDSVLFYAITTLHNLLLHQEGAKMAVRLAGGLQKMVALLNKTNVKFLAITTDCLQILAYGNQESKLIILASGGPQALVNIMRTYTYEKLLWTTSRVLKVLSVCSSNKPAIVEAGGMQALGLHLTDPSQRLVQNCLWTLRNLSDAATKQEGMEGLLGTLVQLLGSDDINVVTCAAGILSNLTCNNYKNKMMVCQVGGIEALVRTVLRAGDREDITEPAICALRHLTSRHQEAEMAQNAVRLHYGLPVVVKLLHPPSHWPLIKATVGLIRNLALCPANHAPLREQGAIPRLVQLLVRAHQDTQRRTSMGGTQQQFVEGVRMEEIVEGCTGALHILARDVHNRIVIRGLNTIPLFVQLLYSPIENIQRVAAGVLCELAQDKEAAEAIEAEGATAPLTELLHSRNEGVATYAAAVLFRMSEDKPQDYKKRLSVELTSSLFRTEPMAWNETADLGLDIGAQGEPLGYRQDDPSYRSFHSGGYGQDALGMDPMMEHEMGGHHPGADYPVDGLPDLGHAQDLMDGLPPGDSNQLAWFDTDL


target: T1, B-cat-Halo; test: cell-based or functional assay

| NanoBRET Abs IC50 (uM); B-cat-Halo / TCF4-Luc in HEK293 cells [µM] | Binder |
| --- | --- |
| 33.6 | Ac-[αAllylPro]N[tBuAla][B5(4)]DDAAFL[PyrS2][3Thi][Bta][Thr(ol)] (staple 1-4, 4-11) [I-1304] |
| 38.8 | Ac-[αAllylPro]D[Cha][B5(4)]DDAAFL[PyrS2″][Phe(2-Cl)][Bta][Thr(ol)] (staple 1-4, 4-11) [I-1307] |
| 9.1 | Ac-[αAllylPro]D[tBuAla][B5(4)]DDAAFF[PyrS2][3Thi][Bta][Thr(ol)] (staple 1-4, 4-11) [I-1303] |

target: T2, full-length beta-Catenin (Uniprot ID …); test: AlphaScreen competition; full-length beta-catenin, biotin-TCF4(10-53) probe
Description: Equal volume of the titrated peptide was added to the plate and incubated for 15 minutes at 20° C. Then 4 uL of donor and 4 uL acceptor beads at 10 ug/mL were added to the plate, for a 16 uL reaction pool and protected from light for 60 minutes at 20° C. prior to read. Reads were performed on a CLARIOstar plate reader (BMG Labtech) in duplicate, and data were fitted to a 1:1 binding model with hill slope using an in-house script. All provided concentrations are final concentrations.

| EC50 [nM] | Binder |
| --- | --- |
| 158 | Ac-[αAllylPro]DA[B5(20)]DDAAFV[S8]FWQ-NH2 (staple 1-4, 4-11, Stapled (stitched) peptide; also called Ac-PL3-Asp-Ala-B5-Asp-Asp-Ala-Ala-Phe-Val-S8-Phe-Trp-Gln-NH2) [I-52] |

target: T2, full-length beta-Catenin (Uniprot ID …); test: fluorescence polarization competition; full-length beta-catenin, 5FAM-TCF4(10-53) probe
Description: (§1) The plate was incubated protected from light for 60 minutes at 20° C. prior to read. Reads were performed on a CLARIOstar plate reader (BMG Labtech) in duplicate, and data were fitted to a 1:1 binding model with hill slope using an in-house script. All provided concentrations are final concentrations.

| EC50 [nM] | Binder |
| --- | --- |
| 4250 | Ac-ADI[RdN]DDAAFQ[S7]FWH-NH2 (staple 4-11; not fully specified, Stapled peptide; also called Ac-Ala-Asp-Ile-RdN-Asp-Asp-Ala-Ala-Phe-Gln-S7-Phe-Trp-His-NH2) [I-64] |
| 3200 | Ac-[αAllylPro]DA[B5(20)]DDAAFV[S8]FWQ-NH2 (staple 1-4, 4-11, Stapled (stitched) peptide; also called Ac-PL3-Asp-Ala-B5-Asp-Asp-Ala-Ala-Phe-Val-S8-Phe-Trp-Gln-NH2) [I-52] |

target: T3, full-length beta-Catenin (Uniprot ID …); test: fluorescence polarization competition; full-length beta-catenin; competitor 5FAM-TCF4(10-53) probe
Description: as §1

| EC50 [nM] | Binder |
| --- | --- |
| 409 | Ac-PD[tBuAla][R5]DDAAFN[PyrS2(3)][Phe(2-Cl)][Bta]Q-NH2 (staple 4-11, stapled peptide (single staple)) [I-1183] |
| 60 | Ac-[αAllylPro]DF[B5(16)]DDLLFS[PyrS2″][Phe(2-Cl)][Bta]Q-NH2 (staple 1-4, 4-11, stapled peptide) [I-1155] |
| 45 | Ac-[αAllylPro]DF[B5(16)]DDALFS[PyrS2″][Phe(2-Cl)][Bta]Q-NH2 (staple 1-4, 4-11, stapled peptide) [I-1154] |
| 12 | Ac-[αAllylPro]DF[B5(16)]DDLAFS[PyrS2″][Phe(2-Cl)][Bta]Q-NH2 (staple 1-4, 4-11, stapled peptide) [I-1153] |
| 168 | Ac-[αAllylPro]DF[B5(4)]DDLLFT[PyrS2″][Phe(2-Cl)][Bta]S-NH2 (staple 1-4, 4-11, stapled peptide) [I-1158] |
| 14 | Ac-[αAllylPro]DF[B5(16)]DDLAFT[PyrS2″][Phe(2-Cl)][Bta]S-NH2 (staple 1-4, 4-11, stapled peptide) [I-1156] |
| 36 | Ac-[αAllylPro]DF[B5(4)]DDALFT[PyrS2″][Phe(2-Cl)][Bta]S-NH2 (staple 1-4, 4-11, stapled peptide) [I-1157] |
| 176 | Ac-PD[Cha][R5]DDAAFT[PyrS2(3)][Phe(2-Cl)][Bta]S-NH2 (staple 4-11, stapled peptide (single staple)) [I-1184] |
